The values that follow come from the supplement of paper PMC10126150.

± gives the standard deviation of the averaged measurements.
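Further: ATP exposure 15 min at 22 °C before imaging.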

The subject of this data set is ATP. Put plainly: switch fluorescence ratio, 500 uM ATP over buffer (Cy3 cluster intensity, sum of 5 cycles each) (fold (ratio)); higher = stronger signal-on switching upon ATP binding; sequences stand for … in TCGTCGGCAGCGTCAGATGTGTATAAGAGACAGTTTTTTTTTTTTTTTTTTTTTTTTT…TC. Particulars: aptamer strand: ATP DNA aptamer (quencher-CACCTGGGGGAGTATTGCGGAGGAAGG + anchor), 100 nM annealed; ATP concentration: 500 uM. The gist of the method: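 Per cluster, summed Cy3 intensity from the target cycles was divided by that from the buffer cycles to give the fluorescence ratio, then averaged per switch-domain sequence. Clusters outside 100-1000 RFU were excluded. The Cy3-labelled switching-strand clusters, on a modified Illumina MiSeq flow-cell, were annealed to 100 nM quencher-labelled ATP aptamer and imaged in selection buffer, then after 15 min with 500 uM ATP at 22 °C, for five cycles with NaOH stripping and re-annealing between them.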
On to TGGACGAGAG, for which the switch fluorescence ratio is 1.01 ± 0.019.

For GCATGATGCG, the switch fluorescence ratio is 0.994 ± 0.013.

Take TCGGTTGTCT: the switch fluorescence ratio came to 1.02 ± 0.052.

In the case of TTATGTCGAA, the switch fluorescence ratio is 0.98 ± 0.017.

Regarding TTTACCCATC, the switch fluorescence ratio was determined as 1.04 ± 0.033.

Take TGGGATTTGG: the switch fluorescence ratio was 0.98432 ± 0.00062.

Regarding GGTGGTGACT, the switch fluorescence ratio came out at 1.01 ± 0.036.

GGATTTATTG: the switch fluorescence ratio stood at 1.02 ± 0.022.

TGTTTATTTG: the switch fluorescence ratio amounted to 0.965 ± 0.017.

GTTTCTGGCC: the switch fluorescence ratio came out at 0.98 ± 0.019.

In the case of CAGGGTGGTC, the switch fluorescence ratio is 1.04 ± 0.0048.

With TGCCGCCTTG, the switch fluorescence ratio amounted to 0.979 ± 0.024.

Turning to ACGCATTCAA, the switch fluorescence ratio was 1.236 ± 0.0039.

For the sequence TTTCCGGACG, the switch fluorescence ratio was found to be 1.02 ± 0.037.

Turning to GGTACGAAAC, the switch fluorescence ratio was determined as 1.68 ± 0.75.

For GAAAAGCATG, the switch fluorescence ratio came out at 0.988 ± 0.043.

As for TGACGGGAAT, the switch fluorescence ratio is 1.01 ± 0.013.

For the sequence CGTGTTTTTC, the switch fluorescence ratio came out at 0.996 ± 0.026.

Consider ATATGACTTT, for which the switch fluorescence ratio was found to be 1.01 ± 0.052.

ACAAGGAATG: the switch fluorescence ratio came out at 0.997 ± 0.044.

For the sequence GCAGCAATTG, the switch fluorescence ratio is 3.03 ± 0.19.

Regarding CCTAAGAATG, the switch fluorescence ratio was determined as 1.043 ± 0.0035.

Regarding CCTCAGAGGG, the switch fluorescence ratio came out at 1.24 ± 0.22.

Consider GGGTGTTACA, for which the switch fluorescence ratio turned out to be 1.05 ± 0.022.

For ATGTTTATGA, the switch fluorescence ratio is 0.981 ± 0.031.

For TCCTGCCTTA, the switch fluorescence ratio was 1.0991 ± 0.00051.

For the sequence TTGATTTGTG, the switch fluorescence ratio stood at 0.997 ± 0.012.

As for TTTTAAGAGG, the switch fluorescence ratio was determined as 1.01 ± 0.046.

For the sequence GCCGCAGGGA, the switch fluorescence ratio stood at 2.3 ± 1.9.

Take CTGTTCGCCA: the switch fluorescence ratio was determined as 1.07 ± 0.077.

Turning to TATTGAGATG, the switch fluorescence ratio is 0.998 ± 0.046.

As to GTTTTACCGG, the switch fluorescence ratio is 1 ± 0.022.

With GAGGAAAGGG, the switch fluorescence ratio is 0.989 ± 0.013.

AGTAAGCGGC: the switch fluorescence ratio worked out at 1.004 ± 0.0094.

Take AGCTTACTGT: the switch fluorescence ratio is 1.08 ± 0.019.

As for CACAAGGACG, the switch fluorescence ratio was 0.962 ± 0.017.

For AAGGGCTTCT, the switch fluorescence ratio is 1.01 ± 0.018.

Turning to GACTATAGAT, the switch fluorescence ratio came to 1.05 ± 0.034.

Consider CCAGAGGTTG, for which the switch fluorescence ratio amounted to 0.999 ± 0.021.

AGACAGTAGG: the switch fluorescence ratio stood at 1.03 ± 0.03.

For the sequence TAGTTTGGGC, the switch fluorescence ratio came to 0.983 ± 0.019.

Turning to TGAAATTTTT, the switch fluorescence ratio worked out at 0.982 ± 0.029.

Consider AGTGTTTCAG, for which the switch fluorescence ratio is 0.956 ± 0.018.

Consider AGCTGACAGT, for which the switch fluorescence ratio was 0.981 ± 0.0044.

TTTATTATGC: the switch fluorescence ratio was found to be 1.03 ± 0.026.

With CGTTGGTCGC, the switch fluorescence ratio was determined as 1.01 ± 0.016.

In the case of CGTATTAGTA, the switch fluorescence ratio was 0.9926 ± 0.0054.

In the case of AATTCGTGTT, the switch fluorescence ratio was found to be 0.989 ± 0.021.

As for GCGATGTGGT, the switch fluorescence ratio was 1.01 ± 0.012.

Turning to GGAAAAAGAT, the switch fluorescence ratio is 1.04 ± 0.018.

With CGTAATAGTC, the switch fluorescence ratio turned out to be 1.81 ± 0.15.

Consider TTTTGGCCTT, for which the switch fluorescence ratio amounted to 0.997 ± 0.015.

Regarding TTAGGTGTCC, the switch fluorescence ratio amounted to 1.08 ± 0.057.

Consider TGGGGCTTAT, for which the switch fluorescence ratio turned out to be 0.987 ± 0.026.

As to GGTTTAAACT, the switch fluorescence ratio worked out at 0.987 ± 0.016.

In the case of TGGCGGTTAG, the switch fluorescence ratio is 1.01 ± 0.019.

For the sequence AGGGAGGGTT, the switch fluorescence ratio worked out at 1 ± 0.039.

TCGGGTTCAG: the switch fluorescence ratio is 1 ± 0.034.

Consider TCAATCTGGG, for which the switch fluorescence ratio stood at 1.006 ± 0.0066.

On to TGATGAGGAT, for which the switch fluorescence ratio turned out to be 1.007 ± 0.0083.

As to TGGGTTTCAG, the switch fluorescence ratio turned out to be 0.996 ± 0.05.

Consider ATAATTCGGC, for which the switch fluorescence ratio came out at 0.984 ± 0.022.

Regarding TTCACACTA, the switch fluorescence ratio came to 1.07 ± 0.044.

With GATAGGAAAT, the switch fluorescence ratio was found to be 0.977 ± 0.036.

For the sequence GTCCGGCAAT, the switch fluorescence ratio is 2.04 ± 0.33.

Consider CCATTCTTGA, for which the switch fluorescence ratio came to 0.996 ± 0.037.

On to GAGCGGTTAT, for which the switch fluorescence ratio was determined as 1.33 ± 0.42.

As for GAGGACCCAG, the switch fluorescence ratio worked out at 1.01 ± 0.027.

Consider TTTGCGGTCA, for which the switch fluorescence ratio is 1.021 ± 0.0091.

Regarding TGGGCCGGGG, the switch fluorescence ratio was 0.989 ± 0.019.

With ACGGGGTTGG, the switch fluorescence ratio amounted to 1.03 ± 0.024.

In the case of TTGTGCGGGT, the switch fluorescence ratio came out at 1.02 ± 0.049.

Consider AGCAGGAGCC, for which the switch fluorescence ratio came out at 1.061 ± 0.0063.

With TACATAGTTC, the switch fluorescence ratio is 1.032 ± 0.0018.

Regarding GTGGGTGGTG, the switch fluorescence ratio is 1.015 ± 0.0046.

Consider TAGTTGTTTG, for which the switch fluorescence ratio is 0.9989 ± 0.0085.

In the case of AAGGCGCTCT, the switch fluorescence ratio is 0.997 ± 0.014.

On to CGGAGCGACG, for which the switch fluorescence ratio stood at 1.03 ± 0.015.

Take TGTTTTTGCT: the switch fluorescence ratio came to 0.969 ± 0.033.

GCCGTGTATG: the switch fluorescence ratio turned out to be 1.06 ± 0.14.

For TACGAGGGGA, the switch fluorescence ratio amounted to 1.03 ± 0.026.

For the sequence AGTATGGGGA, the switch fluorescence ratio worked out at 0.989 ± 0.016.

As to GGGATTTTGA, the switch fluorescence ratio is 0.999 ± 0.017.

Take AATTGTCGCG: the switch fluorescence ratio came out at 1.01 ± 0.012.

In the case of GCGGGCGGCG, the switch fluorescence ratio was determined as 0.974 ± 0.03.

With GGTACGAGGT, the switch fluorescence ratio worked out at 0.972 ± 0.019.

In the case of CCTGAGGATG, the switch fluorescence ratio was determined as 1.03 ± 0.015.

Regarding CGATCTTGTG, the switch fluorescence ratio was determined as 0.988 ± 0.01.

With GCGAGAGGGA, the switch fluorescence ratio turned out to be 1.01 ± 0.013.

Regarding GGGATTTCCG, the switch fluorescence ratio worked out at 0.992 ± 0.018.

Consider CGTGGTGGGT, for which the switch fluorescence ratio was found to be 0.963 ± 0.025.

On to CAAGGGGACG, for which the switch fluorescence ratio came to 1.004 ± 0.0082.

Consider TGTTAATAAC, for which the switch fluorescence ratio was determined as 1 ± 0.052.

In the case of TTTTCCCGGG, the switch fluorescence ratio was found to be 1.13 ± 0.15.

For GATAGTGC, the switch fluorescence ratio stood at 1.06 ± 0.078.

As to TCCGGCGTGC, the switch fluorescence ratio is 1.13 ± 0.23.

GATTTGCATC: the switch fluorescence ratio turned out to be 1.03 ± 0.025.

Turning to TTAGGAGGGT, the switch fluorescence ratio was determined as 0.965 ± 0.037.

For TGGGGGAATG, the switch fluorescence ratio was 0.992 ± 0.0027.

As for GTAATTTATC, the switch fluorescence ratio amounted to 1.0089 ± 0.00052.

For TCCTGAGTTA, the switch fluorescence ratio was found to be 0.996 ± 0.011.

Take GAAATACGGG: the switch fluorescence ratio amounted to 1.09 ± 0.043.

On to CCGGAAATTT, for which the switch fluorescence ratio stood at 1.01 ± 0.019.

With CGCGGGAGAG, the switch fluorescence ratio turned out to be 1.02 ± 0.04.

Turning to AGTGTCGTGC, the switch fluorescence ratio was 1 ± 0.025.

Regarding GGGCTTAACG, the switch fluorescence ratio stood at 0.982 ± 0.014.

For TGGCTTCGGC, the switch fluorescence ratio was 0.9979 ± 0.0053.

Consider CGTTCAAGTT, for which the switch fluorescence ratio was found to be 1 ± 0.024.

Turning to TACTCTGAAA, the switch fluorescence ratio was 2.38 ± 0.48.

As to AAAGAAGTGG, the switch fluorescence ratio was found to be 0.959 ± 0.027.

Take GAGTAACTCG: the switch fluorescence ratio amounted to 1.007 ± 0.0067.

As to AAAATGCGGA, the switch fluorescence ratio came out at 0.9951 ± 0.003.

In the case of TGCGGAGGTT, the switch fluorescence ratio was determined as 1.019 ± 0.0037.

Take AAGGAGCTAT: the switch fluorescence ratio amounted to 1.05 ± 0.026.

Take AATAGGGTTA: the switch fluorescence ratio was 1 ± 0.045.

As for GATGAAATTG, the switch fluorescence ratio came out at 0.953 ± 0.045.

For the sequence CGCATATGGC, the switch fluorescence ratio was 2.459 ± 0.016.

In the case of TTTGGGGGGA, the switch fluorescence ratio turned out to be 1.05 ± 0.21.

For GTTTTGTGGG, the switch fluorescence ratio turned out to be 0.968 ± 0.034.

For GCATAAAGGA, the switch fluorescence ratio is 0.9684 ± 0.0075.
